Measured values as given in publication PMC12586476, “Molecular mechanism and structural models of protein-mediated copper transfer to the Arabidopsis thaliana ethylene receptor ETR1 at the ER membrane” (Scientific Reports, 2025).

How the values were obtained:
[1] = biological target: T1, ETR1_GAF^1–316 (truncation of the Arabidopsis thaliana ethylene receptor ETR1 containing the transmembrane … (Arabidopsis thaliana, UniProt P49333 1-316, AlexaFluor 488-NHS (amine-reactive dye) label)); test: MST; AlexaFluor488-labelled ETR1_GAF 50 nM, MBDs titrated 100 µM to 24.4 nM; 300 mM NaCl, 50 mM HEPES pH 7.2 with Fos-Choline-14 and glycerol; room temperature; thermophoresis with T-jump; one-site binding model; apparent KD; conditions: both partners purified
T1 construct: Membrane protein kept in Fos-Choline-14; source: E. coli C41(DE3)∆ompF∆acrAB, membranes solubilized in Fos-Choline-14, purified (Ni-NTA IMAC)
T1 sequence (looked up): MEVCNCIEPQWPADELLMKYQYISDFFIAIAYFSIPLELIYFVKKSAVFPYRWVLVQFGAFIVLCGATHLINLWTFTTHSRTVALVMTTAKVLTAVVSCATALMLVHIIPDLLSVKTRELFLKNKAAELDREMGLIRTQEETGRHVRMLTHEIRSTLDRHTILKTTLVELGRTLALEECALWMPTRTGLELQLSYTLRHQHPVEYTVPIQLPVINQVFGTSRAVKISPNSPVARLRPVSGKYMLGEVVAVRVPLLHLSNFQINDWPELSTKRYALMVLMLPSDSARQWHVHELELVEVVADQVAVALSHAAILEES

[2] = biological target: T2, Arabidopsis copper chaperone CCH (Arabidopsis thaliana, UniProt O82089 1-121, AlexaFluor 488 label); test: MST; AlexaFluor488-labelled ATX1 or CCH 100 nM, MBDs titrated (MBD1 300 µM to 0.19 nM, MBD2 100 µM to 0.19 nM, MBD3 100 µM to 0.06 nM); 300 mM NaCl, 50 mM HEPES pH 7.2 with Tween20 and glycerol; room temperature; initial fluorescence analysed; one-site binding model; apparent KD; conditions: both partners purified
T2 construct: Copper chaperone CCH, Arabidopsis thaliana
T2 sequence (looked up): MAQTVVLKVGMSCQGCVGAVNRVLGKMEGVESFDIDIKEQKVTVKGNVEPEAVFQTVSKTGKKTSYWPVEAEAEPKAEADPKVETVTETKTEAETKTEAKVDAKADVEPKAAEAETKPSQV

[3] = biological target: Arabidopsis copper transport protein ATX1 (Arabidopsis thaliana); test: as above

B1: RAN1 metal binding domain 1 (MBD1) (domain or fragment, Arabidopsis thaliana, UniProt Q9S7J8 55-130, looked up)
chain: LRKIQVGVTGMTCAACSNSVEAALMNVNGVFKASVALLQNRADVVFDPNLVKEEDIKEAIEDAGFEAEILAEEQTQ
notes: Copper-transporting P-type ATPase RAN1 (HMA7), Arabidopsis thaliana, MBD1, AA 55-130; Cloned into pETEV16b (pET-16b derivative with a TEV site); no tag cleavage is described; also called HMA7 MBD1; source: E. coli BL21 Gold (DE3), purified (Ni-NTA IMAC, SEC)
A Kd [1] of 13300 ± 4400 nM, a Kd [2] of 3160 ± 684 nM and a Kd [3] of 155 nM were found for B1 in this work.

B2: RAN1 metal binding domain 2 (MBD2) (domain or fragment, Arabidopsis thaliana, UniProt Q9S7J8 132-207, looked up)
chain: TLVGQFTIGGMTCAACVNSVEGILRDLPGVKRAVVALSTSLGEVEYDPNVINKDDIVNAIEDAGFEGSLVQSNQQD
notes: Copper-transporting P-type ATPase RAN1 (HMA7), Arabidopsis thaliana, MBD2, AA 132-207; Cloned into pETEV16b (pET-16b derivative with a TEV site); no tag cleavage is described; also called HMA7 MBD2; source: E. coli BL21 Gold (DE3), purified (Ni-NTA IMAC, SEC)
A Kd [1] of 22300 ± 12100 nM, a Kd [2] of 2280 ± 990 nM and a Kd [3] of 239 nM were found for B2 in this work.

B3: RAN1 degenerate metal binding domain 3 (MBD3) (domain or fragment, Arabidopsis thaliana, UniProt Q9S7J8 205-283, looked up)
chain: QQDKLVLRVDGILNELDAQVLEGILTRLNGVRQFRLDRISGELEVVFDPEVVSSRSLVDGIEEDGFGKFKLRVMSPYER
notes: Copper-transporting P-type ATPase RAN1 (HMA7), Arabidopsis thaliana, MBD3, AA 205-283; Cloned into pETEV16b; also called HMA7 MBD3; source: E. coli BL21 Gold (DE3), purified (Ni-NTA IMAC, SEC); not shown: His tag (deca-histidine), N-terminal, kept
A Kd [1] of 8300 ± 6600 nM, a Kd [2] of 88.5 ± 78.2 nM and a Kd [3] of 105 nM were found for B3 in this work.
